The supplement of paper PMC9170038

System: MS2 coat protein
Assay: apparent KD of MS2 coat protein; designed switch direction (-1 OFF switch, 1 ON switch): -1; higher = weaker reporter binding
Outline: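 The reported apparent KD is a per-design median over clusters, from curve fits of normalised cluster fluorescence. Protein titrations used SNAP-549-labelled MS2 coat protein, doubled from 0.7 or 1.5 nM to 3 µM, in Tris-HCl pH 7.5 buffer with KCl, MgCl2, BSA, DTT, tRNA and Tween-20, with no input, 200 uM small-molecule ligand, or an oligonucleotide input. The RNA switches were transcribed on Illumina chips by stalled E. coli RNA polymerase.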

[1] = Eterna round: R95, input ligand: microRNA oligo, concentration not stated
[2] = Eterna round: R95, input ligand: FMN 200 uM
[3] = Eterna round: R95, input ligand: none
[4] = input ligand: microRNA oligo, concentration not stated

In the case of “CAAUGACAUGAGGAUCACCCAUGUGAGGAUAUGGAGCGAGACCGCGCGGUCGCGUACACCAGAAGGCGCAGGCG [1st #66] (Eterna round: R97, puzzle: Exclusion 1)”, the “apparent KD of MS2 coat protein” value (input ligand: FMN 200 uM) is reported as 89.3 nM and the “apparent KD of MS2 coat protein” value (input ligand: none) is reported as 37.9 nM.

“CAAUGUGCUGAGGAUAUCUGCAGGUUGGGCCUGGGAGAAGGCGGCACAUGAGGAUCACCCAUGUGACCGAAAUA [EX6 A.17] (Eterna round: R97, puzzle: Exclusion 6)” was tested, and the “apparent KD of MS2 coat protein” value (input ligand: FMN 200 uM) was 78.5 nM and the “apparent KD of MS2 coat protein” value (input ligand: none) was 39.3 nM.

With “CAAUUCUGAGGAUAUCGAUUUUUGUACAUGAGGAUCACCCAUGUCCUUUUUAUUUAAUCCCGAGAAGGCAGUGUAU [JR_E5_Sub097] (puzzle: Exclusion 5)” the “apparent KD of MS2 coat protein” value [1] was 23.8 nM.

For “CACAAGCUUUUUUGAUGCAUUUUAGUGGGUGUGGGUUGGACAUGAGGAUCACCCAUGUUUAUGAAGCUCGAUCUUUU [JR_SV3TOV2_Sub081] (puzzle: Sensor v3, turn-off variant 2)”, the “apparent KD of MS2 coat protein” value [2] was 92.7 nM, the “apparent KD of MS2 coat protein” value [1] was 170 nM and the “apparent KD of MS2 coat protein” value [3] was 124 nM.

For “CACAAGCUUUUUUGUUGCUUUUUAGUUGGUGUGUGAUUUACAUGAGGAUCACCCAUGUUAUUGAUGCUCGAUCUUUU [JR_SV3TOV2_Sub082] (puzzle: Sensor v3, turn-off variant 2)”, the “apparent KD of MS2 coat protein” value [2] was 71.1 nM, the “apparent KD of MS2 coat protein” value [1] was 143 nM and the “apparent KD of MS2 coat protein” value [3] was 97.3 nM.

“CACAGACAUGAGGAUCACCCAUGUUAGGAUAUGGAUAGCCUGCCAAGAAUAGGCGCCUCCAGAAGGAACUGGGA [Eternabot (Original) Solution 36] (Eterna round: R97, puzzle: Exclusion 1)” was tested, and the “apparent KD of MS2 coat protein” value (input ligand: FMN 200 uM) was 141 nM and the “apparent KD of MS2 coat protein” value (input ligand: none) was 61.1 nM.

With “CACCCUGAUGUCAGGAUAUGCGCGUCGCGCCUCGAGCAGAAGGGACAUGAGGAUCACCCAUGUUGUCUCUUGGG [Orisvedixe] (puzzle: Brourd's mod of Exclusion 4)” the “apparent KD of MS2 coat protein” value [1] was 44.5 nM.

With “CACCGGGUAGGAUAUACUUGAGGAUCACCCAAGUGGGAACCUACUCGGUGGUCCUUAAGUAGAAGGACCAACGG [Ex 2] (Eterna round: R97, puzzle: Exclusion 3)” the “apparent KD of MS2 coat protein” value (input ligand: FMN 200 uM) was 11.5 nM and the “apparent KD of MS2 coat protein” value (input ligand: none) was 11.9 nM.

“CACCGUAACAGAGGAUAUCAAACAUGAGGAUCACCCAUGUAAUAAAUGAGAAUUUCGAAUGUACCUGAGAAGGCUGAAACCGGC [Ostricism 83 - Jieux - Exclusion NG 2] (Eterna round: R96, puzzle: Exclusion NG 2)” was tested, and the “apparent KD of MS2 coat protein” value [4] was 25.9 nM.

“CACCGUUAGGGAGGAUAUCGUACAUGAGGAUCACCCAUGUAAUAAAUGAGAAUUUCGGAUGUAUGCGAGAAGGCCCAAAUCGGC [Ostracism 42 - Jieux - Exclusion NG 2] (Eterna round: R96, puzzle: Exclusion NG 2)” was tested, and the “apparent KD of MS2 coat protein” value (input ligand: FMN 200 uM) was 36.8 nM, the “apparent KD of MS2 coat protein” value [4] was 35.8 nM and the “apparent KD of MS2 coat protein” value (input ligand: none) was 48.4 nM.

In the case of “CACCGUUAGUGAGGAUAUCGUACAUGAGGAUCACCCAUGUAAUAAAUGAGAAUUUCGGAUGUAUGCGAGAAGGCACAAAUCGGC [Ostracism 40 - Jieux - Exclusion NG 2] (Eterna round: R96, puzzle: Exclusion NG 2)”, the “apparent KD of MS2 coat protein” value (input ligand: FMN 200 uM) is reported as 37.1 nM, the “apparent KD of MS2 coat protein” value [4] is reported as 34.7 nM and the “apparent KD of MS2 coat protein” value (input ligand: none) is reported as 45.2 nM.

“CACCUCGUAGCAGGAUAUUAGAGCUUCCGCAAAUGAGAAGGGCUACGAAACACUUGAGGAUCACCCAAGUACCGUGGUCCUCUA [Mutated MS2 EX1.11] (Eterna round: R96, puzzle: Exclusion NG 1)” was tested, and the “apparent KD of MS2 coat protein” value (input ligand: FMN 200 uM) was 19.7 nM, the “apparent KD of MS2 coat protein” value [4] was 14 nM and the “apparent KD of MS2 coat protein” value (input ligand: none) was 22.3 nM.

For “CACGUCUGAGGAUAUCGUUUUUUGUACAUGAGGAUCACCCAUGUCCAAUUUUGUAUAUUACGAGAAGGCAGUGGAA [JR_E5_Sub090] (puzzle: Exclusion 5)”, the “apparent KD of MS2 coat protein” value [1] was 12.3 nM.

For “CACUUGGUAGGAUAUGAAGGGAGGAACAUGAGGAUCACCCAUGUCCUGGAAUCCAGUCCGUCAGAAGGACCUGAGC [Eternabot (L1) Solution 44] (Eterna round: R97, puzzle: Exclusion 5)”, the “apparent KD of MS2 coat protein” value (input ligand: FMN 200 uM) was 24.4 nM and the “apparent KD of MS2 coat protein” value (input ligand: none) was 21.6 nM.

“CAGAAACAUGAGGAUCACCCAUGUGAGGAUAUGAAAAAGAAAAGAAAAGAAAGAAGAAUCAGAAGGCACAAAGA [salish99-ex1_r3_085] (puzzle: Exclusion 1)” was tested, and the “apparent KD of MS2 coat protein” value [2] was 31.3 nM, the “apparent KD of MS2 coat protein” value [1] was 23.9 nM and the “apparent KD of MS2 coat protein” value [3] was 31.8 nM.

For “CAGAAGCAAGGAUAUACAACGGGCCACAGAGCGAGAGGGCAACAUGAGGAUCACCCAUGUAGAAGGUGCGUAAC [Timaina] (puzzle: Exclusion 2)”, the “apparent KD of MS2 coat protein” value [2] was 47.5 nM, the “apparent KD of MS2 coat protein” value [1] was 97.4 nM and the “apparent KD of MS2 coat protein” value [3] was 74.4 nM.

“CAGCCUCUUGUGAGGAUAUUCUGCUAAGCGAGGCGGAAGAAGGUACAUGAGGAUCACCCAUGUUGGCGGAAUAA [Eternabot (Original) Solution 21] (Eterna round: R97, puzzle: Brourd's mod of Exclusion 4)” was tested, and the “apparent KD of MS2 coat protein” value (input ligand: FMN 200 uM) was 167 nM and the “apparent KD of MS2 coat protein” value (input ligand: none) was 37.6 nM.

With “CAGCUGAAUGUGAGGAUAUGUCGAGCUUCGGCUCGAUAGAAGGCACAUGAGGAUCACCCAUGUCUCAACAGCUG [BmEx4/2-C1] (Eterna round: R97, puzzle: Brourd's mod of Exclusion 4)” the “apparent KD of MS2 coat protein” value (input ligand: FMN 200 uM) was 166 nM and the “apparent KD of MS2 coat protein” value (input ligand: none) was 35.1 nM.

“CAGGAUAGAGGAUAUACAUAGAUACAGAUUCAUGUAAUCCUACAUGAGGAUCACCCAUGUAGAAGGCUAUCCUG [Fiskers Ex 2 - 16] (puzzle: Exclusion 2)” was tested, and the “apparent KD of MS2 coat protein” value [1] was 15.4 nM.

For “CAGGAUAGAGGAUAUACAUAGAUACAGAUUCGUGUGAUCCUACAUGAGGAUCACCCAUGUAGAAGGCUAUCCUG [Fiskers Ex 2 - 23] (Eterna round: R96, puzzle: Exclusion 2)”, the “apparent KD of MS2 coat protein” value (input ligand: FMN 200 uM) was 82 nM, the “apparent KD of MS2 coat protein” value [4] was 392 nM and the “apparent KD of MS2 coat protein” value (input ligand: none) was 587 nM.

For “CAGGAUAGAGGAUAUACAUAGAUACAGAUUCGUGUGAUCCUACAUGAGGAUCACCCAUGUAGAAGGCUAUCCUG [Fiskers Ex 2 - 23] (puzzle: Exclusion 2)”, the “apparent KD of MS2 coat protein” value [1] was 210 nM.

With “CAGGGUAGAGGAUAUACGUAGGUACAGAUCCGUGUGAUCCUACAUGAGGAUCACCCAUGUAGAAGGCUAGCCUG [LRO-Excl2-06] (puzzle: Exclusion 2)” the “apparent KD of MS2 coat protein” value [1] was 332 nM.

With “CAGGGUAGAGGAUAUACGUAGGUACAGAUCUGUGUGAUCCUACAUGAGGAUCACCCAUGUAGAAGGCUAGCCUG [LRO-Excl2-07] (puzzle: Exclusion 2)” the “apparent KD of MS2 coat protein” value [1] was 305 nM.

With “CAGGUCUGAAAGGAUAUCCACGCCUGCGGGCCAGGAGAAGGUUCGACUUGAGGAUCACCCAAGUGCCGAGUCCA [Ervezaar] (Eterna round: R97, puzzle: Exclusion 6)” the “apparent KD of MS2 coat protein” value (input ligand: FMN 200 uM) was 33.2 nM and the “apparent KD of MS2 coat protein” value (input ligand: none) was 20.6 nM.

“CAGGUGUUAGGAUAUCGGAGAUCGAGACCGACGGGAUGAGCCGAGAAGGAACAUGAGGAUCACCCAUGUAGGUG [JR_Exclu4_Sub034] (Eterna round: R96, puzzle: Exclusion 4)” was tested, and the “apparent KD of MS2 coat protein” value [4] was 304 nM.

With “CAGGUGUUAGGAUAUCGGAGAUCGAGACCGACGGGAUGAGCCGAGAAGGAACAUGAGGAUCACCCAUGUAGGUG [JR_Exclu4_Sub034] (puzzle: Exclusion 4)” the “apparent KD of MS2 coat protein” value [2] was 166 nM, the “apparent KD of MS2 coat protein” value [1] was 400 nM and the “apparent KD of MS2 coat protein” value [3] was 414 nM.

For “CAGUACUGAGGAUAUACAUGAGGAUCACCCAUGUCCCAAAAGUAGGAUACUACUAUUAGUAGAAGGCAGUACUG [Fiskers Ex 3 828 mod 25] (Eterna round: R96, puzzle: Exclusion 3)”, the “apparent KD of MS2 coat protein” value (input ligand: FMN 200 uM) was 498 nM, the “apparent KD of MS2 coat protein” value [4] was 43.2 nM and the “apparent KD of MS2 coat protein” value (input ligand: none) was 46.1 nM.

With “CAGUACUGAGGAUAUACAUGAGGAUCACCCAUGUCCCAAAAGUAGGAUACUACUAUUAGUAGAAGGCAGUACUG [Fiskers Ex 3 828 mod 25] (puzzle: Exclusion 3)” the “apparent KD of MS2 coat protein” value [1] was 38.9 nM.

“CAGUACUGAGGAUAUACAUGAGGAUCACCCAUGUCUUAAAAGUAGGAUACUACUAUUAGUAGAAGGCAGUACUG [Fiskers Ex 3 828 mod 24] (Eterna round: R96, puzzle: Exclusion 3)” was tested, and the “apparent KD of MS2 coat protein” value (input ligand: FMN 200 uM) was 38.5 nM, the “apparent KD of MS2 coat protein” value [4] was 12.3 nM and the “apparent KD of MS2 coat protein” value (input ligand: none) was 17 nM.

With “CAGUACUGAGGAUAUACAUGAGGAUCACCCAUGUCUUAAAAGUAGGAUACUACUAUUAGUAGAAGGCAGUACUG [Fiskers Ex 3 828 mod 24] (puzzle: Exclusion 3)” the “apparent KD of MS2 coat protein” value [1] was 12.6 nM.

In the case of “CAGUACUGAGGAUAUACAUGAGGAUCACCCAUGUGAAAAAGCUACGAAAGUAGCAAAUGUAGAAGGCAGUACUG [Ex3: 806] (Eterna round: R96, puzzle: Exclusion 3)”, the “apparent KD of MS2 coat protein” value [4] is reported as 29.9 nM.

For “CAGUACUGAGGAUAUACAUGAGGAUCACCCAUGUGAUCUGGUGCACGCGUACGUGUACGUAGAAGGCAGUACUG [JL 3.27 m4] (Eterna round: R97, puzzle: Exclusion 3)”, the “apparent KD of MS2 coat protein” value (input ligand: FMN 200 uM) was 1280 nM and the “apparent KD of MS2 coat protein” value (input ligand: none) was 121 nM.

For “CAGUACUGAGGAUAUACAUGAGGAUCACCCAUGUGUCCCUGCUAGGAAACUAGCAAAAGUAGAAGGCAGUACUG [Fiskers Ex 3 828 mod 3] (puzzle: Exclusion 3)”, the “apparent KD of MS2 coat protein” value [2] was 298 nM, the “apparent KD of MS2 coat protein” value [1] was 21.3 nM and the “apparent KD of MS2 coat protein” value [3] was 21.2 nM.
